Where no end group is shown, it is not given here.
Molecular target: T1, K3GW (acetylated N-terminus)
T1 peptide: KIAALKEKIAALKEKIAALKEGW
Assay: ITC

## Ac-EIAALEKEIAALEKEIAALEKGY [E3GY]
  Kd: 73 nM
  dH: -18.4 kcal/mol

From PMC7086394 (Bioconjugate Chemistry, 2020)
